The data set has as its system MS2 coat protein. Put plainly: apparent KD of MS2 coat protein; designed switch direction (-1 OFF switch, 1 ON switch): -1; higher = weaker reporter binding. In short, it runs like this: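 On Illumina chips, designed RNA switches with common flanks were made by stalled E. coli RNA polymerase. Titrations with SNAP-549-labelled MS2 coat protein, doubling from 0.7 or 1.5 nM to 3 µM, were done with no input, with 200 uM small-molecule ligand, or with an oligonucleotide input. Apparent KD is the median per design over clusters, from curve fits of normalised cluster fluorescence.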

Setting [1] is: input ligand: microRNA oligo, concentration not stated.
[2] abbreviates: Eterna round: R95, input ligand: FMN 200 uM.
Where [3] appears, read: Eterna round: R95, input ligand: microRNA oligo, concentration not stated.
Where [4] appears, read: Eterna round: R95, input ligand: none.

With “AAACGGCGGAUCGUGGCUUUUUGCUCGUCUUGUGCUUCGACAUGAGGAUCACCCAUGUGGUGGUGAUCCGUUGUAAA [Grok-var2-16 mod JAL] (Eterna round: R96, puzzle: Sensor v3, turn-off variant 2)”, the “apparent KD of MS2 coat protein” value (input ligand: FMN 200 uM) came out at 0.537 µM, the “apparent KD of MS2 coat protein” value under setting [1] was 0.0124 µM and the “apparent KD of MS2 coat protein” value (input ligand: none) was determined as 0.084 µM.
Take “AAACGGCGGAUCGUGGCUUUUUGCUCGUCUUGUGCUUCGACAUGAGGAUCACCCAUGUGGUGGUGAUCCGUUGUAAA [Grok-var2-16 mod JAL] (puzzle: Sensor v3, turn-off variant 2)”: the “apparent KD of MS2 coat protein” value by setting is: under setting [2], 0.0586 µM; under setting [3], 0.0158 µM; under setting [4], 0.0835 µM.
On to “AAACUGAGGCAAAGCUUUAGUCGUACAUGAGGAUCACCCAUGUAGGAUAUGGUAGGCUUUGCUUACCAGAAGGACAGAGUGAUC [Mat - Exclusion NG 3 - Mod of JL - D56] (Eterna round: R96, puzzle: Exclusion NG 3)”, for which the “apparent KD of MS2 coat protein” value is 0.235 µM (input ligand: FMN 200 uM), 0.103 µM under setting [1] and 0.11 µM (input ligand: none).
In the case of “AAACUGCAUGUGAGGAUAUGCACCGGCUAAACCGGGCAGAAGGCACAUGAGGAUCACCCAUGUCAUCCUAUUGC [Esleisus] (puzzle: Brourd's mod of Exclusion 4)”, under setting [3], the “apparent KD of MS2 coat protein” value was 0.00901 µM.
For the sequence “AAAGAAGAGAGAAAACAACACAUGAGGAUCACCCAUGUGAGAAGAUGAGGGUGAUACAGGCUAUAUGCUCGUCUUAU (puzzle: Sensor v3, turn-off variant 1)”, the “apparent KD of MS2 coat protein” value runs as follows: under setting [2], 0.055 µM; under setting [3], 0.281 µM; under setting [4], 0.0524 µM.
Turning to “AAAGCUGCAGGAUAUGCAUGUGUGGACAUGAGGAUCACCCAUGUGAGCGUAUCAUGUCGAGCAGAAGGGCAGUAAA [Atquer] (Eterna round: R97, puzzle: Exclusion 5)”, the “apparent KD of MS2 coat protein” value (input ligand: FMN 200 uM) amounted to 0.172 µM and the “apparent KD of MS2 coat protein” value (input ligand: none) came out at 0.63 µM.
As for “AAAGUAGACCUUGAAGCAUCGUAAACAUGAGGAUCACCCAUGUAGGAUAUGGGUAGCUAUGCUAGCCAGAAGGAUGUGUGGUGA [Eternabot solution 16] (Eterna round: R96, puzzle: Exclusion NG 3)”, the “apparent KD of MS2 coat protein” value (input ligand: FMN 200 uM) was 0.335 µM, the “apparent KD of MS2 coat protein” value under setting [1] is 0.039 µM and the “apparent KD of MS2 coat protein” value (input ligand: none) was determined as 0.0544 µM.
“AAAUAACAAGCAAUAAACCACAUGAGGAUCACCCAUGUAAAGGGUGAAUCGUCCACCCAAAAAAAAAAAAAAAAAUA [Mat - Sensor v2 - Eli mod - 147] (Eterna round: R96, puzzle: Sensor v2, turn-off variant)”: the “apparent KD of MS2 coat protein” value (input ligand: FMN 200 uM) was determined as 0.0433 µM, the “apparent KD of MS2 coat protein” value under setting [1] worked out at 0.178 µM and the “apparent KD of MS2 coat protein” value (input ligand: none) came out at 0.0523 µM.
As to “AAAUAAUAGAUAAAAUAAAACAUGAGGAUCACCCAUGUGGGAAGAUGAGGGUGAAACAAGCUUUUUGCUCGUCUUAU (puzzle: Sensor v3, turn-off variant 1)”, the “apparent KD of MS2 coat protein” value runs as follows: under setting [2], 0.0378 µM; under setting [3], 0.754 µM; under setting [4], 0.0467 µM.
The matching figures for “AAAUAAUAGAUAAAAUAAAACAUGAGGAUCACCCAUGUGGGAUGUUGAGGGUGAAACAAGCUUUUUGCUCGUCUUAU (puzzle: Sensor v3, turn-off variant 1)”: 0.105 µM, 0.502 µM and 0.139 µM.
As to “AAAUACAAGUAAGGAUUCUACAUGAGGAUCACCCAUGUGCUCGUCUUAUAAAGUACUAUCACGAAAGUGAUAGUACA [Sensor 3, v1 - 38] (puzzle: Sensor v3, turn-off variant 1)”, the “apparent KD of MS2 coat protein” value by setting is: under setting [2], 0.022 µM; under setting [3], 0.19 µM; under setting [4], 0.0262 µM.
As to “AAAUACCGGUGAGGAUAUUUAUAAUAGAACUUUAUGAUAUACAUGAGGAUCACCCAUGUUACUUUAAAGAAGGCAUCGGAUAAA [Mat - Exclusion NG 2 - Mod of JL - D89] (Eterna round: R96, puzzle: Exclusion NG 2)”, the “apparent KD of MS2 coat protein” value under setting [1] was found to be 0.0139 µM.
With “AAAUAGCAUGAGGAUAUUGGACUGGAUUCAGUGCGAGAAGGCAUGACAUGAGGAUCACCCAUGUUGUGUUGGGA [EX6 #9] (Eterna round: R97, puzzle: Exclusion 6)”, the “apparent KD of MS2 coat protein” value is, setting by setting: (input ligand: FMN 200 uM) 0.0426 µM; (input ligand: none) 0.017 µM.
Turning to “AAAUAGCUAGAGGAUAUCGGAUAGGAUUUAUUACGAGAAGGUUAGACAUGAGGAUCACCCAUGUUCUGUUGGGA [EX6 #21] (Eterna round: R97, puzzle: Exclusion 6)”, the “apparent KD of MS2 coat protein” value came to 0.0869 µM (input ligand: FMN 200 uM) and 0.0346 µM (input ligand: none).
Regarding “AAAUAGUGAGGAUAUUAGUUGUACGUCAAUAGACGUAUAAGUGAGAAGGCACAUGAGGAUCACCCAUGUUCCAG [Omei Ex4 Mod of Mat's R95 mod of Omei v9] (Eterna round: R97, puzzle: Exclusion 4)”, the “apparent KD of MS2 coat protein” value turned out to be 0.0484 µM (input ligand: FMN 200 uM) and 0.0222 µM (input ligand: none).

Source of the values: the supplement of paper PMC9170038.
